From patent US7560106B2, “Rationally designed heparinases derived from heparinase I and II and methods of sequencing therewith” (Massachusetts Institute of Technology, priority 1998, dated 2009)
Where two headings read alike, the source gives them in different places.

What was measured:
[1] = Heparinase I UV 232 nm activity assay as a function of heparin concentration (Kcat, Km); assay type: biochemical, porcine; conditions: for Kcat / Km: heparin 0 to 4 mg/ml, 5 mM calcium acetate, pH 7.0; for Kcat: 100 mM MOPS
[2] = Heparin-POROS affinity chromatography; assay type: binding; conditions: for NaCl: salt concentration at which enzyme elutes from heparin-POROS column, 10 mM Tris, 1 mM EDTA pH 7.0
Description: Heparin-POROS chromatography: About 30-40 μg of -L r-heparinase I and the various mutant enzymes were injected into a heparin POROS (4.6 mm×100) column (PerSeptive BioSystems, Framingham, Mass.) connected to BioCAD system (PerSeptive BioSystems). Proteins were eluted using a linear gradient of […] NaCl in 10 min (10 mM Tris, 1 mM EDTA pH 7.0) and monitored at 210 nm. EDTA was added to chelate any calcium ions that may be present in the buffers.

[3] = Heparinase I activity as a function of calcium concentration (K0.5, calcium dependence); assay type: biochemical
In short: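 Heparinase I mutant activity was measured by UV absorbance at 232 nm in 100 mM MOPS, pH 7.0, with calcium varied from 0 to 10 mM. Activity is given as IU (μmol product/min) using ε=−3800 M^−1cm^−1.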

[4] = Fluorescence competition for calcium with probe rhod-5N; conditions: apparent dissociation constant of rhod-5N for calcium with 3 μM enzyme; lower Kd′ means less binding of calcium by heparinase I
Description: Fluorescence Competition. To determine the effect of mutations in CB-1 and CB-2 on the ability of heparinase I to bind calcium, mutants with a dramatic drop in activity were tested for their ability to bind calcium. To accomplish this, we examined the ability of heparinase I and mutants to compete for free calcium with the calcium-chelating fluorescence probe rhod-5N. The fluorescence probe rhod-5N was dissolved and diluted in buffer A (10 mM MOPS and 100 mM KCl, pH 6.5). Buffer A and the water used in the study were run through a Chelex Resin column to remove trace amounts of calcium. In the absence of calcium, rhod-5N is not fluorescent, however upon binding calcium rhod-5N is fluorescent with an emission λmax of 576 nm. Before titration, rhod-5N and heparinase I were added to a quartz cuvette such that the final concentration of rhod-5N in the cuvette was 0.3 μM and heparinase I is 3 μM. To this solution was added aliquots of a calcium solution (20 mM) which had been previously equilibrated with 0.3 μM rhod-5N and 3 μM heparinase I. The stock was added such that the calcium concentration in the cuvette was 50, 100, 200, 500, 1000, 5000 μM. After allowing the solution to come to equilibrium, the sample was scanned from 560 nm to 600 nm with the excitation wavelength fixed at […]. The plot of I/Imax versus [Ca^++] was fitted to a non-linear equation to determine the apparent Kd (Kd′) value. Thus, Kd′ values represent the apparent dissociation constants for the fluorescence probe rhod-5N. Control samples without heparinase I were included in the study.

[5] = calcium concentration at which half of the maximum enzyme activity was observed, calcium 0 to 10 mM, Table 4 first K0.5 column

| Molecule | decrease in Kcat compared to wild-type r-heparinase I [1] | Kcat [1] [s⁻¹] | Km [1] [µM] | NaCl [2] [mM] | K0.5 ([3]; Table 4 second K0.5 column) [µM] | K0.5 [3, 5] [µM] | Kd [4] [µM] | decrease in Kcat compared to wild-type r-heparinase I ([1]; listed as N375) | elution salt concentration / heparin binding relative to wild-type r-heparinase I, in words [2] | NaCl ([2]; listed as wild-type r-heparinase I) |
| --- | --- | --- | --- | --- | --- | --- | --- | --- | --- | --- |
| D212A/G213A/T216A: heparinase I CB-1 triple mutant (protein, UniProt Q05819 22-384, looked up, variant D212A G213A T216A) Heparin lyase I: QQKKSGNIPYRVNVQADSAKQKAIIDNKWVAVGINKPYALQYDDKLRFNGKPSYRFELKAEDNSLEGYAAGETKGRTELSYSYATTNDFKKFPPSVYQNAQKLKTVYHYGKGICEQGSSRSYTFSVYIPSSFPDNATTIFAQWHGAPSRTLVATPEGEIKTLSIEEFLALYDRMIFKKNIAHDKVEKKDKAAKIAYVAGKPNGWKVEQGGYPTLAFGFSKGYFYIKANSDRQWLTDKADRNNANPENSEVMKPYSSEYKTSTIAYKMPFAQFPKDCWITFDVAIDWTKYGKEANTILKPGKLDVMMTYTKNKKPQKAHIVNQQEILIGRNDDDGYYFKFGIYRVGNSTVPVTYNLSGYSETAR | ~5 fold | 20 | 3.16 | 495 | 730 | 730 | 116 | – | – | – |
| E381A: heparinase I CB-2 mutant, glutamate 381 changed to alanine (protein, UniProt Q05819 22-384, looked up, variant E381A) Heparin lyase I: QQKKSGNIPYRVNVQADSAKQKAIIDNKWVAVGINKPYALQYDDKLRFNGKPSYRFELKAEDNSLEGYAAGETKGRTELSYSYATTNDFKKFPPSVYQNAQKLKTVYHYGKGICEQGSSRSYTFSVYIPSSFPDNATTIFAQWHGAPSRTLVATPEGEIKTLSIEEFLALYDRMIFKKNIAHDKVEKKDKDGKITYVAGKPNGWKVEQGGYPTLAFGFSKGYFYIKANSDRQWLTDKADRNNANPENSEVMKPYSSEYKTSTIAYKMPFAQFPKDCWITFDVAIDWTKYGKEANTILKPGKLDVMMTYTKNKKPQKAHIVNQQEILIGRNDDDGYYFKFGIYRVGNSTVPVTYNLSGYSATAR | about 10 fold | 10 | 0.52 | 505 | 180 | 180 | 175 | – | – | – |
| N375A: heparinase I CB-2 mutant, asparagine 375 changed to alanine (protein, UniProt Q05819 22-384, looked up, variant N375A) Heparin lyase I: QQKKSGNIPYRVNVQADSAKQKAIIDNKWVAVGINKPYALQYDDKLRFNGKPSYRFELKAEDNSLEGYAAGETKGRTELSYSYATTNDFKKFPPSVYQNAQKLKTVYHYGKGICEQGSSRSYTFSVYIPSSFPDNATTIFAQWHGAPSRTLVATPEGEIKTLSIEEFLALYDRMIFKKNIAHDKVEKKDKDGKITYVAGKPNGWKVEQGGYPTLAFGFSKGYFYIKANSDRQWLTDKADRNNANPENSEVMKPYSSEYKTSTIAYKMPFAQFPKDCWITFDVAIDWTKYGKEANTILKPGKLDVMMTYTKNKKPQKAHIVNQQEILIGRNDDDGYYFKFGIYRVGNSTVPVTYALSGYSETAR | about 10 fold | 10 | 0.88 | 490 | 60 | 60 | 216 | more than 9 fold | comparable to wild-type r-heparinase I | – |
| G378A/Y379A: heparinase I CB-2 double mutant (protein, UniProt Q05819 22-384, looked up, variant G378A Y379A) Heparin lyase I: QQKKSGNIPYRVNVQADSAKQKAIIDNKWVAVGINKPYALQYDDKLRFNGKPSYRFELKAEDNSLEGYAAGETKGRTELSYSYATTNDFKKFPPSVYQNAQKLKTVYHYGKGICEQGSSRSYTFSVYIPSSFPDNATTIFAQWHGAPSRTLVATPEGEIKTLSIEEFLALYDRMIFKKNIAHDKVEKKDKDGKITYVAGKPNGWKVEQGGYPTLAFGFSKGYFYIKANSDRQWLTDKADRNNANPENSEVMKPYSSEYKTSTIAYKMPFAQFPKDCWITFDVAIDWTKYGKEANTILKPGKLDVMMTYTKNKKPQKAHIVNQQEILIGRNDDDGYYFKFGIYRVGNSTVPVTYNLSAASETAR | – | 9 | 0.31 | 489 | 90 | 90 | 136 | – | comparable to wild-type r-heparinase I | – |
| -L: wild-type recombinant heparinase I expressed without the putative F. heparinum leader sequence (protein, UniProt Q05819 22-384, looked up, recombinant, without leader sequence) Heparin lyase I: QQKKSGNIPYRVNVQADSAKQKAIIDNKWVAVGINKPYALQYDDKLRFNGKPSYRFELKAEDNSLEGYAAGETKGRTELSYSYATTNDFKKFPPSVYQNAQKLKTVYHYGKGICEQGSSRSYTFSVYIPSSFPDNATTIFAQWHGAPSRTLVATPEGEIKTLSIEEFLALYDRMIFKKNIAHDKVEKKDKDGKITYVAGKPNGWKVEQGGYPTLAFGFSKGYFYIKANSDRQWLTDKADRNNANPENSEVMKPYSSEYKTSTIAYKMPFAQFPKDCWITFDVAIDWTKYGKEANTILKPGKLDVMMTYTKNKKPQKAHIVNQQEILIGRNDDDGYYFKFGIYRVGNSTVPVTYNLSGYSETAR | – | 92 | 3.94 | 482 ± 3 | 270 | 270 | 206 | – | – | about 482 mM |
| E207A/D210A/D212A: heparinase I CB-1 triple mutant (protein, UniProt Q05819 22-384, looked up, variant E207A D210A D212A) Heparin lyase I: QQKKSGNIPYRVNVQADSAKQKAIIDNKWVAVGINKPYALQYDDKLRFNGKPSYRFELKAEDNSLEGYAAGETKGRTELSYSYATTNDFKKFPPSVYQNAQKLKTVYHYGKGICEQGSSRSYTFSVYIPSSFPDNATTIFAQWHGAPSRTLVATPEGEIKTLSIEEFLALYDRMIFKKNIAHDKVAKKAKAGKITYVAGKPNGWKVEQGGYPTLAFGFSKGYFYIKANSDRQWLTDKADRNNANPENSEVMKPYSSEYKTSTIAYKMPFAQFPKDCWITFDVAIDWTKYGKEANTILKPGKLDVMMTYTKNKKPQKAHIVNQQEILIGRNDDDGYYFKFGIYRVGNSTVPVTYNLSGYSETAR | – | 25 | 0.73 | 540 | 810 | 810 | 151 | – | – | – |
